Patent publication US20120172293A1 (Takeda / Millennium, published 2012)
Starred links: 1 amine or outer side, 2 acyl side, 3 side chain; linkers in the order of their positions; H or OH if unused. Non-standard residues stand in square brackets, D forms with d. Primed or numbered codes have the meaning given here. Ser(Me)(3) = methylserine, COC[C@H](N[*:1])C(=O)[*:2]; Azetidine3carboxylic = O=C(C1CN([*:1])C1)[*:2]; dHyp = O=C(O)[C@H]1C[C@H](O)CN1; Cha = N[C@@H](CC1CCCCC1)C(=O)O; dPip = O=C(O)[C@H]1CCCCN1; NMeA = CN[C@@H](C)C(=O)O; dNMeA = CN[C@H](C)C(=O)O; Abu = CC[C@H](N)C(=O)O; Nleu = CC(C)CNCC(=O)O; Aib = CC(C)(N)C(=O)O; Sar = CNCC(=O)O

What was measured:
[1] = target: human Y2 receptor (human) (UniProt P49146); test: cell-based or functional assay
[2] = target: human Y2 receptor (human) (UniProt P49146); test: RBA: [125I]-PYY displacement, hY2R/CHO membranes

Chain of human Y2 receptor (human) (P49146 whole entry): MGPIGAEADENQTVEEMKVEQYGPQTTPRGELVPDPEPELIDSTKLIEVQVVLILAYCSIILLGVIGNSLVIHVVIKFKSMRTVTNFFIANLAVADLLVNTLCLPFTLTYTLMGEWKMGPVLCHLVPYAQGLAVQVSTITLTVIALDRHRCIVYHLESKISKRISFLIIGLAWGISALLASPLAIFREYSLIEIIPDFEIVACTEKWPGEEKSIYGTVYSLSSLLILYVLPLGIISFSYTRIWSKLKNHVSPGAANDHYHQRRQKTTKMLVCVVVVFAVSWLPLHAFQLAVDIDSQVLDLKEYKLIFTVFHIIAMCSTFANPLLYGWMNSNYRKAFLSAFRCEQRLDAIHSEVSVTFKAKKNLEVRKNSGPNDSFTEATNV

Binder | GBA EC50 Ratio (vs PYY(3-36)), [35S]GTPγS [1] | IC50 Ratio (vs PYY(3-36)) [2]
Ac-S[dNMeA]RH[Cha][Cha]NL[Aib]TRQR[Cha]-NH2 (SMILES CC(=O)N[C@@H](CO)C(=O)N(C)[C@H](C)C(=O)N[C@@H](CCCNC(=N)N)C(=O)N[C@@H](Cc1c[nH]cn1)C(=O)N[C@@H](CC1CCCCC1)C(=O)N[C@@H](CC1CCCCC1)C(=O)N[C@@H](CC(N)=O)C(=O)N[C@@H](CC(C)C)C(=O)NC(C)(C)C(=O)N[C@H](C(=O)N[C@@H](CCCNC(=N)N)C(=O)N[C@@H](CCC(N)=O)C(=O)N[C@@H](CCCNC(=N)N)C(=O)N[C@@H](CC1CCCCC1)C(N)=O)[C@@H](C)O) [Ac-[D-MeAla24, Cha27,28,36, Aib31]-PYY(23-36)] | 2.2 | 3.4
Ac-S[Azetidine3carboxylic]RH[Cha][Cha]NL[Aib]TRQR[Cha]-NH2 (SMILES CC(=O)N[C@@H](CO)C(=O)N1CC(C(=O)N[C@@H](CCCNC(=N)N)C(=O)N[C@@H](Cc2c[nH]cn2)C(=O)N[C@@H](CC2CCCCC2)C(=O)N[C@@H](CC2CCCCC2)C(=O)N[C@@H](CC(N)=O)C(=O)N[C@@H](CC(C)C)C(=O)NC(C)(C)C(=O)N[C@H](C(=O)N[C@@H](CCCNC(=N)N)C(=O)N[C@@H](CCC(N)=O)C(=O)N[C@@H](CCCNC(=N)N)C(=O)N[C@@H](CC2CCCCC2)C(N)=O)[C@@H](C)O)C1) [Ac-[Aze(3)24, Cha27,28,36, Aib31]-PYY(23-36)] | 4.7 | 11
Ac-[Ser(Me)(3)][dP]R[Abu][Cha][Cha]NL[Aib]TRQR[Cha]-NH2 (SMILES CC[C@H](NC(=O)[C@H](CCCNC(=N)N)NC(=O)[C@H]1CCCN1C(=O)[C@H](COC)NC(C)=O)C(=O)N[C@@H](CC1CCCCC1)C(=O)N[C@@H](CC1CCCCC1)C(=O)N[C@@H](CC(N)=O)C(=O)N[C@@H](CC(C)C)C(=O)NC(C)(C)C(=O)N[C@H](C(=O)N[C@@H](CCCNC(=N)N)C(=O)N[C@@H](CCC(N)=O)C(=O)N[C@@H](CCCNC(=N)N)C(=O)N[C@@H](CC1CCCCC1)C(N)=O)[C@@H](C)O) [Ac-[Ser(Me)23, D-Pro24, Abu26, Cha27,28,36, Aib31]-PYY(23-36)] | 3.8 | 5.2
Ac-E[dPip]RH[Cha][Cha]NL[Aib]TRQR[Cha]-NH2 (SMILES CC(=O)N[C@@H](CCC(=O)O)C(=O)N1CCCC[C@@H]1C(=O)N[C@@H](CCCNC(=N)N)C(=O)N[C@@H](Cc1c[nH]cn1)C(=O)N[C@@H](CC1CCCCC1)C(=O)N[C@@H](CC1CCCCC1)C(=O)N[C@@H](CC(N)=O)C(=O)N[C@@H](CC(C)C)C(=O)NC(C)(C)C(=O)N[C@H](C(=O)N[C@@H](CCCNC(=N)N)C(=O)N[C@@H](CCC(N)=O)C(=O)N[C@@H](CCCNC(=N)N)C(=O)N[C@@H](CC1CCCCC1)C(N)=O)[C@@H](C)O) [Ac-[Glu23, D-Pic(2)24, Cha27,28,36, Aib31]-PYY(23-36)] | 10 | 17
Ac-S[Nleu]RH[Cha][Cha]NL[Aib]TRQR[Cha]-NH2 (SMILES CC(=O)N[C@@H](CO)C(=O)N(CC(=O)N[C@@H](CCCNC(=N)N)C(=O)N[C@@H](Cc1c[nH]cn1)C(=O)N[C@@H](CC1CCCCC1)C(=O)N[C@@H](CC1CCCCC1)C(=O)N[C@@H](CC(N)=O)C(=O)N[C@@H](CC(C)C)C(=O)NC(C)(C)C(=O)N[C@H](C(=O)N[C@@H](CCCNC(=N)N)C(=O)N[C@@H](CCC(N)=O)C(=O)N[C@@H](CCCNC(=N)N)C(=O)N[C@@H](CC1CCCCC1)C(N)=O)[C@@H](C)O)CC(C)C) [Ac-[N(iBu)Gly24, Cha27,28,36, Aib31]-PYY(23-36)] | 8.4 | 20
Ac-S[dPip]RH[Cha][Cha]NL[Aib]TRQR[Cha]-NH2 (SMILES CC(=O)N[C@@H](CO)C(=O)N1CCCC[C@@H]1C(=O)N[C@@H](CCCNC(=N)N)C(=O)N[C@@H](Cc1c[nH]cn1)C(=O)N[C@@H](CC1CCCCC1)C(=O)N[C@@H](CC1CCCCC1)C(=O)N[C@@H](CC(N)=O)C(=O)N[C@@H](CC(C)C)C(=O)NC(C)(C)C(=O)N[C@H](C(=O)N[C@@H](CCCNC(=N)N)C(=O)N[C@@H](CCC(N)=O)C(=O)N[C@@H](CCCNC(=N)N)C(=O)N[C@@H](CC1CCCCC1)C(N)=O)[C@@H](C)O) [Ac-[D-Pic(2)24, Cha27,28,36, Aib31]-PYY(23-36)] | 5.8 | 9.9

Further lines, results first:

GBA EC50 Ratio (vs PYY(3-36)), [35S]GTPγS [1] | IC50 Ratio (vs PYY(3-36)) [2] | Binder
5.1 | 6.1 | Ac-[dS][NMeA]RH[Cha][Cha]NL[Aib]TRQR[Cha]-NH2 (SMILES CC(=O)N[C@H](CO)C(=O)N(C)[C@@H](C)C(=O)N[C@@H](CCCNC(=N)N)C(=O)N[C@@H](Cc1c[nH]cn1)C(=O)N[C@@H](CC1CCCCC1)C(=O)N[C@@H](CC1CCCCC1)C(=O)N[C@@H](CC(N)=O)C(=O)N[C@@H](CC(C)C)C(=O)NC(C)(C)C(=O)N[C@H](C(=O)N[C@@H](CCCNC(=N)N)C(=O)N[C@@H](CCC(N)=O)C(=O)N[C@@H](CCCNC(=N)N)C(=O)N[C@@H](CC1CCCCC1)C(N)=O)[C@@H](C)O) [Ac-[D-Ser23, MeAla24, Cha27,28,36, Aib31]-PYY(23-36)]
0.9 | 1.1 | Ac-S[dHyp]RH[Cha][Cha]NL[Aib]TRQR[Cha]-NH2 (SMILES CC(=O)N[C@@H](CO)C(=O)N1C[C@@H](O)C[C@@H]1C(=O)N[C@@H](CCCNC(=N)N)C(=O)N[C@@H](Cc1c[nH]cn1)C(=O)N[C@@H](CC1CCCCC1)C(=O)N[C@@H](CC1CCCCC1)C(=O)N[C@@H](CC(N)=O)C(=O)N[C@@H](CC(C)C)C(=O)NC(C)(C)C(=O)N[C@H](C(=O)N[C@@H](CCCNC(=N)N)C(=O)N[C@@H](CCC(N)=O)C(=O)N[C@@H](CCCNC(=N)N)C(=O)N[C@@H](CC1CCCCC1)C(N)=O)[C@@H](C)O) [Ac-[D-Hyp24, Cha27,28,36, Aib31]-PYY(23-36)]
5.9 | 12 | Ac-F[dP]R[Abu][Cha][Cha]NL[Aib]TRQR[Cha]-NH2 (SMILES CC[C@H](NC(=O)[C@H](CCCNC(=N)N)NC(=O)[C@H]1CCCN1C(=O)[C@H](Cc1ccccc1)NC(C)=O)C(=O)N[C@@H](CC1CCCCC1)C(=O)N[C@@H](CC1CCCCC1)C(=O)N[C@@H](CC(N)=O)C(=O)N[C@@H](CC(C)C)C(=O)NC(C)(C)C(=O)N[C@H](C(=O)N[C@@H](CCCNC(=N)N)C(=O)N[C@@H](CCC(N)=O)C(=O)N[C@@H](CCCNC(=N)N)C(=O)N[C@@H](CC1CCCCC1)C(N)=O)[C@@H](C)O) [Ac-[Phe23, D-Pro24, Abu26, Cha27,28,36, Aib31]-PYY(23-36)]
5.3 | 6.6 | Ac-[dS][Sar]RH[Cha][Cha]NL[Aib]TRQR[Cha]-NH2 (SMILES CC(=O)N[C@H](CO)C(=O)N(C)CC(=O)N[C@@H](CCCNC(=N)N)C(=O)N[C@@H](Cc1c[nH]cn1)C(=O)N[C@@H](CC1CCCCC1)C(=O)N[C@@H](CC1CCCCC1)C(=O)N[C@@H](CC(N)=O)C(=O)N[C@@H](CC(C)C)C(=O)NC(C)(C)C(=O)N[C@H](C(=O)N[C@@H](CCCNC(=N)N)C(=O)N[C@@H](CCC(N)=O)C(=O)N[C@@H](CCCNC(=N)N)C(=O)N[C@@H](CC1CCCCC1)C(N)=O)[C@@H](C)O) [Ac-[D-Ser23, Sar24, Cha27,28,36, Aib31]-PYY(23-36)]
